According to the DeepSol protein solubility set:

Assay: soluble on expression in E. coli; label from the status in PepcDB or PDB records
For “MGSDKIHHHHHHMIRYPVLKEGATIGVTAPSSGVPKDLHDLVKAACERMEERGFRVVCGETVWTQEKAKSSEAKKRATELQAMMEDDAIDLMIPPWGGQLLIEVLQFLDFEQWEPKWILGYSDTSLLLLAITLNTGIATAHGTNLVDLRGEYSDDTTAMWQPVLSTKIGDSIVQHSSKKYQKEWDFERPTPCVFHLTEKTKWQGVPKQTLSINGRLLGGCIDVIRHLIGTPYGDVTRFQADVIKGAPIIWFFENCELTTTDLRRTLVQMKLAGWFDHCSGIMFGRSPTNTPVEDYTVDDVFRDLYEELKVPLMTDIDCGHVPPQLTLINGAYAEVKLNDGKGIVTQFFKE”, the “soluble on expression in E. coli” value was “not soluble”. With “MGSDKIHHHHHHMISQFIDRKRELAILEREWKNTPSFVVIYGRRRVGKTRLLVEFSKGKKVFFYTFMEGTKESQVKSLAKELVDFFNDEIFLSFSDWYPLFKYLSGKLMEKTLFVFDEFTYAVKSDRSILSALQRVWDHELSYKPVMLVLSGSLMGIMEDNVLSHSSPLYGRRTAGFRLRSLGLFPSLRFFKSPIEGLKFYMLLGGIPAYLIIASRYETVGEFVEREFLTPEGYFYDEPYIVLSELKELKTYFSILSAMSSGRRRPSEIASEVGLEGRKIYPYLETLIRLGFVERELPIARKEKRGLYRISDPMLMSWFSLIYPNRTEIELGTITLERVEKILQRIFSFRFEDVSREFLVEMNKAGKLPFRFTKIGRWWYKGEEIDLVALNEDEEKALFIEVKWKDLKEREVKGILKDLEKKAGLVGLDGWDKNYGLIEKSIERKEKLREENYLVWDLKDFDALKILSQ” the “soluble on expression in E. coli” value was “not soluble”. In the case of “MGSDKIHHHHHHMITISHITAKNMYKSLEERINKFPQGAPPSDTLYKILNVLYTEQEAKLVAQLPIKPFRVKTAAKIWSVSESEAYRVLDKLASKALILDIEDNKGKKYIMPPPMAGFFEFAMMRTRHDIDQKLLAELYYQYMNVEEDFIKDLFYSTETKLGRVYVQEEVLTNDNEVSILDYERATHIIDESTHIGISMCYCRHRMQHVGKACDAPMDICMTFDNVANSLINNKFARRVDKIECKELLHQAYEHNLVQCGENVRKGVTFICNCCGCCCEAMVAAKRFGNLHPVQTTSFIPNINHENCVKCGKCITACPIDAISKVKEDGKEYIKIDEDRCLGCGVCVRNCHKNSIMLLKRDEKIITPANSVHRAVLMAIEKGQLQNLIFDNNALASHRAMGAILSAILKLEPAKKILASKQLKSVYLDKLLSMNDK”, the “soluble on expression in E. coli” value is reported as “not soluble”. With “MGSDKIHHHHHHMITPTIRGGHEVNYLVAVEGAKVGDAIAIRVERIRVLSKAASSGVDSPREGSFVGDPYVAKKCPVCNEPWPEFEVVGIGEDAIRCKKCGAPVSPFRMINGYTMVFDHEGGVGVTVDKKTAEMIAKNAWEWHALPKNSKQVPILIFAKADIVGVPSRIRPFLGQLGTIPAVDIPDSHNAGDFGYFLINAPHPYAISKEDYETKLTDGHLDVDSVREGAIVIAPVKVEGGGVYAGDAHAMEGDGEVAGHTTDVTAETTVTVEVIKGLNLEGPILLPPEEDLPPLAKPWRKDEWEKVERLAKKFGIEVEPVAPLQIIGSGPTINDAALNGFKRAAKLFGMSVEEVKNRVTITGAVEIGRLPGIVQVSMQVPLRILEKLGIYELVVKHYNLPF” the “soluble on expression in E. coli” value was “not soluble”. For “MGSDKIHHHHHHMITQQQIETVLGQIIDPTTGKDYLTSKAVSDIQIKQDNVSVNIELGYPAKSVLNTVHQQIEQAIRTVPGIGSITVNVTSNIIAHSAQRKLKLIPGVKNVIAVASGKGGVGKSATAVNLALALAAEGATVGILDADIYGPSQPQMLGVSGRPDSPDGKTIEPMQAHGIQMMSIGLLIDVETPMVWRGPMVTQALQQLLNDTRWHDLDYLVIDLPPGTGDIQLTLAQKIPVTGAVIVTTPQDIALLDARKGLKMFEKVGIPILGIVENMSLHTCSHCGHTEPIFGTGGGEKMCRDYNVELLGALPLDIRIREHTDAGKPSVVAEPDGQIADIYRTIARLVAAKISDMARDYSDVFTQIIMEDD”, the “soluble on expression in E. coli” value was “not soluble”. With “MGSDKIHHHHHHMITTARPNVLWIMADQLRFDYLSCYGHPHLHTPHIDALAARGVRFTNAYVQSPVCGPSRMSAYTGRYVRSHGSTWNGMPLRVGEPTLGDHLREAGARAVLVGKTHMVADAEGMAWLGIDPKSEIGVSRSECGFEPFERDDGLHPDSPRQRWSAYDDYLVSHGYDSQNPWEDFANSGVDADGELLSAWLLKNSRLAANVPEEHSETAYMTDRAMAFMEEAEADGRPWMCHLSYIKPHWPYIVPAPYHDMYDESHIIDPVRSEAERDNAHPLVGAYQNSRVCRTFSRDQVRDHVIPAYMGLIKQLDDNLGRLFAWMDARGLSENTIIAFTSDHGDYMGDHWMGEKDFYHEMAVKVPMIIADPRPQADGTRGHVADDLVEMIDLAPTFMTALGAAPKPHIIEGRDLTPLLHGTDGFARQYVISEYDYHWSEMAAALQVPQEDAHTTMIFDGRWKYIRCERFDPVLFDLETDPQELVDLGTSPAHAEIRALMDAALLKWATQHHTRITATAAVLAGQKIAAETGILIGFWDEAEFEAATGFPFTDLTPQGPPK” the “soluble on expression in E. coli” value was “not soluble”. With “MGSDKIHHHHHHMIYIDKNESPVTPLDEKTMTSIISATPYNLYPDAAYEQFKEAYAKFYGLSPEQIIAGNGSDELIQKLMLIMPEGPALTLNPDFFMYQAYAAQVNREIAFVDAGSDLTFDLETILTKIDEVQPSFFIMSNPHNPSGKQFDTAFLTAIADKMKALNGYFVIDEAYLDYGTAYDVELAPHILRMRTLSKAFGIAGLRLGVLISTAGTIKHIQKIEHPYPLNVFTLNIATYIFRHREETRVFLTMQRQLAEQLKQIFDTHVADKMSVFPSNANFVLTKGSAAHQLGQYVYEQGFKPRFYDEPVMKGYVRYSIATASQLKQLEEIVKEWSAKYDLSKTTKHS” the “soluble on expression in E. coli” value was “not soluble”. With “MGSDKIHHHHHHMIYSVDKKDIEIGISACLIGEKVRFDASNKPSHFCIKEFSEHVSYKSFCPEVAVGLPIPRPTIRQIKRDDVIHVSQKDGSGDVTEALKAYGKKVASMTKSLSGYIFCAKSPSCGMERVKIYSPEGNSLPSKGIGAFAKEIMDANPLLPCEENGRLNDPLLRENFVARVFAYKHWQTIVESGLTKHKLTTFHSHYKYTVMSHDLIAYKELGQLLARADLPLDEVAAQYILGLMTALKIIATRKKHANTLAHIQGYFSKHLQANERQELCEQIDAYREGLIPLMAPLTLIKHYLLNHPKDYLTKQAYLSPYPDKLRLRYAY” the “soluble on expression in E. coli” value was “not soluble”. For “MGSDKIHHHHHHMKASVIIPAYNSKERLYNSLLSLNQQECDEEFEVIVADNGSEDGTLSMLESFQADFPLIFTRIKENRGIAYGRNQALRNARGDILIFHDSDMLAAKDLVAKHIKAHENEENLVVCGLFWKRIYSFYYERFEEEHKEQLAKLTGEMPKKDKQKLLEEADIKNGSFLDKSFDLDTDFIDVLKKILDEYGDDLKGYHMPWRFFITNNSSVKRKHVVDLGLFDEGIVRYGFEDYDLGIRLHQAGLTFRLRRDIVSVHQEHPSNCKSVDDIRANIAYMCDKYNNIRSLDVHLAFNGPFPPDMTNRIMADIQKLLESQKYDMLLNLFLELLHVVKERNIDPDWRKKSPRVTAKSFDLQTVRKLLPKAKKKLGVNDFANALYALVNDLLHVDLRSLDVV”, the “soluble on expression in E. coli” value was “not soluble”. With “MGSDKIHHHHHHMKAVRVHILGSGGREHAIGWAFAKQGYEVHFYPGNAGTKRDGTNHPYEGEKTLKAIPEEDIVIPGSEEFLVEGVSNWRSNVFGPVKEVARLEGSKVYAKRFMKKYGIRTARFEVAETPEELREKIKKFSPPYVIKADGLARGKGVLILDSKEETIEKGSKLIIGELIKGVKGPVVIDEFLAGNELSAMAVVNGRNFVILPFVRDYKRLMDGDRGPNTGGMGSWGPVEIPSDTIKKIEELFDKTLWGVEKEGYAYRGFLYLGLMLHDGDPYILEYNVRLGDPETEVIVTLNPEGFVNAVLEGYRGGKMEPVEPRGFAVDVVLAARGYPDAPEKGKEITLPEEGLIFFAGVAEKDGKLVTNGGRVLHCMGTGETKEEARRKAYELAEKVHFEGKTYRRDIAL” the “soluble on expression in E. coli” value was “soluble”. For “MGSDKIHHHHHHMKDYTYSVTEINEYIKDLIEGDPYLTNVSVYGEISGVRPRKGHIFFSLVEENARLECVIFGGDNMGIRLQEGRMALVEGSVSVYIPHGTYRFICSNVRYLDQAGMYQIKFETTLKKLLEEGLLSRPKKTVPRFPRKIGIITSRDSAALQDVIRTARERKAPIEIYVFHTSVQGDSAREELIKALRKANEYDLDLVMIVRGGGSKEDLWVFNEEDVIREILRLRHPVVTGIGHEIDRVIADFVADVSMHTPTGAAEYVIPDASEIHEDLDSFFEKLITSLSNRFDMEERRLETLYFRLRMIGRRKLELNEFKIERVKELAAKLRKKLMDYFEHNQKKLDSLGRMLESLNPLRPLERGFVLVKKDEKIVKESTDLKRGDVVSLVFKDGTKKAQVIG”, the “soluble on expression in E. coli” value was “not soluble”.
